Source: US20030059769

Legend:
[1] = target: T1, L-selectin (LS-Rg) (Homo sapiens) (UniProt P14151); assay: filter
T1 sequence: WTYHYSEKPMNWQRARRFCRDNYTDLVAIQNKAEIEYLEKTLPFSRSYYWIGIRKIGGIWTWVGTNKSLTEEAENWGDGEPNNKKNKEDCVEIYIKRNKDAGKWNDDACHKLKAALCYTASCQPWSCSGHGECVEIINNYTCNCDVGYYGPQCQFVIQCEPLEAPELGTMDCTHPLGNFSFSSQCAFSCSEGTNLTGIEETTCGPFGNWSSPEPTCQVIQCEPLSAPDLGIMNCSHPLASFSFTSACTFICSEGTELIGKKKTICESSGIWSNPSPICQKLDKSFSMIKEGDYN

[2] = target: T2, E-selectin (ES-Rg) (Homo sapiens) (UniProt P16581); assay: filter
T2 sequence: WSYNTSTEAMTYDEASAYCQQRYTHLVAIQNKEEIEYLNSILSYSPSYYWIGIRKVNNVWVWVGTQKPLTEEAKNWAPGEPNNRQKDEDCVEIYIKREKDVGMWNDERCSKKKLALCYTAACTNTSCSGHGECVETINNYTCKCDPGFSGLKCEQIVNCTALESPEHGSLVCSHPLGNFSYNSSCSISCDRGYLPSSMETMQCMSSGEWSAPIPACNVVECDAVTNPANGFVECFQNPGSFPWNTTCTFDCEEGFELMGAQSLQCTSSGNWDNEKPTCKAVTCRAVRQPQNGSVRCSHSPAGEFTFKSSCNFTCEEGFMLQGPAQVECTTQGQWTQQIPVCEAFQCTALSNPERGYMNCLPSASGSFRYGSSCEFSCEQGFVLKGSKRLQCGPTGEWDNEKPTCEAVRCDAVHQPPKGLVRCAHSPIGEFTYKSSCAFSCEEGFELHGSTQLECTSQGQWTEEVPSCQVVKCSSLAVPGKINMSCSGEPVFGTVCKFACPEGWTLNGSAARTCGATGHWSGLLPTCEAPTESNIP

[3] = target: T3, Wheat germ agglutinin (WGA) (Triticum vulgare) (UniProt P10968); assay: filter
T3 sequence: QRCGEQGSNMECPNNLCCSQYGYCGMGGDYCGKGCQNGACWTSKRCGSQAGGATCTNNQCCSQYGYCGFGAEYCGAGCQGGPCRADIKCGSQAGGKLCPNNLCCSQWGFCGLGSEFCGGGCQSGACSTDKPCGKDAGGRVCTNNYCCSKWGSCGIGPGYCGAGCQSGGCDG

[4] = target: T4, P-selectin (PS-Rg) (Homo sapiens) (UniProt P16109); assay: filter
T4 sequence: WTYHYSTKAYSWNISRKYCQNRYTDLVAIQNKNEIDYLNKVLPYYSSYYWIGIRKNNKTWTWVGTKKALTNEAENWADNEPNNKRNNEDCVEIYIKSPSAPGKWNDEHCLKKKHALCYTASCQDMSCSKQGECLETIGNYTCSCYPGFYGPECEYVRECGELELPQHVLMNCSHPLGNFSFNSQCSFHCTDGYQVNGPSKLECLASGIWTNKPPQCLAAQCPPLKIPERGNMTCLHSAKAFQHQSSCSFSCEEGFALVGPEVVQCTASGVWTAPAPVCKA

CD22beta (CD22b-Rg) = CD22beta (CD22b-Rg) (UniProt P20273); assay: filter
[5] = system: Datura stramonium lectin (Datura stramonium); assay: filter
[6] = target: T5, soluble L-selectin (Homo sapiens) (UniProt P14151); assay: filter; settings: 2'-F C and U, 37 C
T5 sequence: T1 sequence

[7] = target: T6, L-selectin on PBMC / lymphocytes (Homo sapiens) (UniProt P14151); settings: 2'-NH2 on all C and U; PBMC binding on ice; competed by DREG-56
T6 sequence: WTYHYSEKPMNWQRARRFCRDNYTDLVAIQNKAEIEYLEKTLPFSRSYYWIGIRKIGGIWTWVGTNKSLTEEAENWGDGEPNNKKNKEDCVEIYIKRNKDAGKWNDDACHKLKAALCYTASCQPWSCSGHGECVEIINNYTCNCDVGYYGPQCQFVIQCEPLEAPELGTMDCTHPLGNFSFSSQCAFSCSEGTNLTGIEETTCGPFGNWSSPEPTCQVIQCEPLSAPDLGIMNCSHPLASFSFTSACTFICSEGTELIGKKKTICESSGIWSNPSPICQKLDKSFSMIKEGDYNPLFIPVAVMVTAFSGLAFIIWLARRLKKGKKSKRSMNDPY

[8] = target: T1, L-selectin (LS-Rg) (Homo sapiens); assay: inhibition; settings: 2'-NH2 C and U; sialyl-LewisX competition ELISA
[9] = 2'-NH2 C and U, <5% bound at 1 uM
[10] = 2'-NH2 C and U, HBSS, room temperature
[11] = 2'-NH2 on all C and U, 4 C, HSMC

CTACCTACGATCTGACTAGCCGAGGATCTGATACTTATTGAACATAMCCGCACNCAGGCTTGCTTACTCTCATGTAGTTCC [LD102]
Kd ([1]; 37 C): 7.9 nM

CTACCTACGATCTGACTAGCCGAGGTAGTCGTTATAGGGTRCRCACGACACAAARCRGTRGCTTACTCTCATGTAGTTCC [LD127]
Kd ([2]; room temperature): 1.3 µM
Kd ([1]; room temp, 890 pM at 37 C): 1 nM
Kd ([3]; <3% at […]): > 100 µM
Kd ([4]; room temperature): 780 nM
Kd (CD22beta (CD22b-Rg); <1% at 700 nM): > 100 µM

GGGAAAAGCGAAUCAUACACAAGAAAGGGAUGGGAUUGGGACGAGCGGCCAAGACUCGGCGGGAACGAAGGGUCCGCUCCGCCAGAGACCAACCGAGAA [WGA ligand 6.8]
Kd [5, 9]: > 20 µM

GGGAAAAGCGAAUCAUACACAAGACAGCGGCGGAGUCAGUGAAAGCGUGGGGGGYGCGGGAGGUCUACCCUGACGCUCCGCCAGAGACCAACCGAGAA [WGA ligand 6.14]
Kd ([3]; 2'-NH2 on all C and U, <5% bound at 1 uM WGA, estimate): > 20 µM

GGGAAAAGCGAAUCAUACACAAGACGGCUGUGUGGUGUUGGAGCGUCAUAGUAGGAGUCGUCACGAACCAAGGCGCUCCGCCAGAGACCAACCGAGAA [WGA ligand 11.24]
Kd [5, 9]: > 20 µM

GGGAAAAGCGAAUCAUACACAAGACUGGCAAGRAGUGCGUGAGGGUACGUUAGGGGUGUUUGGGCCGAUCGCAUGCUCCGCCAGAGACCAACCGAGAA [WGA ligand 11.7]
Kd ([3]; 2'-NH2 on all C and U, HBSS, room temperature): 0.016 µM

GGGAAAAGCGAAUCAUACACAAGAGAGGUGRAUGGGAGAGUGGAGCCCGGGUGACUCGAGGAUUCCCGUGCUCCGCCAGAGACCAACCGAGAA [WGA ligand 11.3]
Kd [3, 10]: 0.41 µM

GGGAAAAGCGAAUCAUACACAAGAGUAGGAGGUUCCAUCACCAGGACUCGGCGGGAACGGAAGGUGAUGSGCUCCGCCAGAGACCAACCGAGAA [WGA ligand 11.35]
Kd [3, 10]: 0.09 µM

GGGAAAAGCGAAUCAUACACAAGANNNNNNNNNNNNNNNNNNNNNNNNNNNNNNNNNNNNNNNNNNNNNNNNNNGCUCCGCCAGAGACCAACCGAGAA [50N9 random 2'-NH2 RNA]
Kd ([3]; 2'-NH2 on all C and U, undetectable at 36 uM WGA monomer, p130 prints >4 uM): > 4000 µM

GGGAAAAGCGAAUCAUACACAAGAUUGGUCGUACUGGACAGAGCCGUGGUAGAGGGAUUGGGACAAAGUGUCAGCUCCGCCAGAGACCAACCGAGAA [WGA ligand 11.20]
Kd ([5]; 2'-NH2 on all C and U, specificity control): 11.2 µM

GGGAGACAAGAAAUAAACNCUCAAGCCCCAAACGCAAGUGAGCAUCCGCAACAGGGAAGAAGACAGAUGAAUGAUUCGACAGGAGGCUCACAACAGGC [PA466]
Kd ([4]; 2'-NH2 C and U, 37 C): 0.43 nM

GGGAGACAAGAAUAAACGCUCAAAAGGUGCCGGGUUGGAGGGGUAGCAAGAAAUGGCUAGGGCGCASGAUUCGACAGGNGGCUCACAACAGGC [PA339]
Kd ([4]; 2'-NH2 C and U, 37 C): 13.5 nM

GGGAGACAAGAAUAAACGCUCAAAUCAACUAAACAACGCAGUCACGAGAACGACCGGKCUGACUCCGAAAGUUCGACAGGAGGCUCACAACAGGC [PA448]
Kd ([4]; 2'-NH2 on all C and U, 37 C): 5 nM

GGGAGACAAGAAUAAACGCUCAACGAGUUCACAUGGGAGCAAUCUCCGAAUAAACAACACGCKAKCGCAAAUUCGACAGGAGGCUCACAACAGGC [PF424]
Kd ([4]; 2'-F C and U, HSMC, 37 C): 0.0365 nM

GGGAGACAAGAAUAAACGCUCAAGUACRCAGUGAGCAGAAGCAGAGAGACUUGGGAUGGGAUGAAAUGGKCUUCGACAGGAGGCUCACAACAGGC [PA467]
Kd ([4]; 2'-NH2 C and U, 37 C): 24 nM

GGGAGACAAGAAUAAACGCUCAANNNGAGGAAGGGCACGCAAGGAAACAAAACACAAAGCAGAAGUAGUAAGAUUCGACAGGAGGCUCACAACAGGC [PA465]
Kd ([4]; 2'-NH2 C and U, 37 C): > 50 nM

GGGAGACAAGAAUAAACNCUCAACGAAAUAGAAGGAACAGAAGAAUGGBGAWGNGGGAAAUGGCAACGAAUUCGACAGGNGGCUCACAACAGGC [PA321]
Kd ([4]; 2'-NH2 C and U, 37 C): 8 nM

GGGAGACAAGAAUAAACNCUCAAGCCCCAAGCAAGUGAGCAUCCGCAACAGGGAAGAAGACAGACGAGUGAUUCGACAGGAGGCUCACAACAGGC [PA473]
Kd ([4]; 2'-NH2 C and U, 37 C): 0.36 nM

GGGAGGACGAUGCGGAAGUGAAGCUAAAGCGGAGGGCCAUUCAGUUUCNCACCACAGACGACUCGCCCGA [F14.2]
Kd ([2]; 2'-NH2 C and U, HSMC, 4 C): 1.9 µM
Kd ([1]; 2'-NH2 on all C and U, 4 C, 7.2 nM at room temp): 1.8 nM
Kd ([4]; 2'-NH2 C and U, HSMC, 4 C): 450 nM
Kd (CD22beta (CD22b-Rg); 2'-NH2 C and U, <5% bound, 4 C): > 20 µM

GGGAGGACGAUGCGGAAGUGAAGCUAAAGSGGAGGGCCACUCAGAAACGCACCACAGACGACUCGCCCGA [F14.13]
Kd ([1]; 2'-NH2 C and U, 4 C, biphasic (0.74), low affinity 270 nM): 1.3 nM

GGGAGGACGAUGCGGACGUGUGUAUCRARUUUUCCGCUGUUUGUGCAGACGACUCGCCCGA [LF1718]
Kd [6]: 0.0064 µM

GGGAGGACGAUGCGGAUAYUCAGCUYGUGUKUUUUCDAUCUUCCCCAGACGACUCGCCCGA [LF1707]
Kd [6]: 0.00016 µM

GGGAGGACGAUGCGGCCGUACAUGGUAARCCUCGAAGGAUUCCCGGGAUGAUCCCCAGACGACUCGCCCGA [F14.27]
Kd ([1]; 2'-NH2 C and U, HSMC, 4 C): 145 nM

GGGAGGACGAUGCGGGAGGAAUGGACWGCGUAUAUCGAGUUGCCUCAGACGACUCGCCCGA [LF1713]
Kd ([6]; table prints SEQ 338): 0.00022 µM

GGGAGGACGAUGCGGNNNNNNNNNNNNNNNNNNNNNNNNNNNNNNNNNNNNNNNNCAGACGACUCGCCCGA [40N7 random 2'-NH2 RNA]
Kd ([1]; 2'-NH2 on all C and U, random pool, estimate): 10000 nM

GGGAGGACGAUGCGGUAACAACAAUCAAGGCGGGUUYACCGCCCCAGUAUGAGUACAGACGACUCGCCCGA [F14.12]
Kd [7]: 0.0013 µM
IC50 [8]: 0.01 µM
Kd [2, 11]: 0.047 µM
Kd ([1]; 2'-NH2 on all C and U, 4 C, HSMC (Ca, Mg), Table 9 prints 5.8 pM (4 C), 1.7 nM room temp): 0.06 nM
Kd [4, 11]: 910 nM
Kd (CD22beta (CD22b-Rg); 2'-NH2 on all C and U, <5% bound at 660 nM protein): > 20 µM

GGGAGGACGAUGCGGUCCAGAGCGUGAAGAUCAACGUCCCGGNGUCGAAGACAGACGACUCGCCCGA [F14.70]
Kd ([2]; 2'-NH2 C and U, HSMC, 4 C): 5.9 µM
Kd ([1]; 2'-NH2 on all C and U, 4 C, biphasic, fraction 0.75, second Kd 254 nM): 2 nM
Kd (CD22beta (CD22b-Rg); 2'-NH2 C and U, <5% bound, 4 C): > 20 µM

GGGAGGACGAUGCGGUUAGCCUACACUCUAGGUUCAGUUUUCGAAUCUUCCACCGCWGACGACUCGCCCGA [LF1618]
Kd ([1]; 2'-F on all C and U, 37 C): 9.6 nM
